Measured values from paper PMC10329691, “The structural pathology for hypophosphatasia caused by malfunctional tissue non-specific alkaline phosphatase” (Nature Communications, 2023).
Changes are numbered by the printed parent chain. In names and notes the source's numbering stands.

How the values were obtained:
[1] = molecular target: T1, human tissue non-specific alkaline phosphatase, amino acids 18-500 (hTNAP^18–500) (human, UniProt P05186, N-glycosylation (asparagine residues, seen in the crystal structure)); test: cryo-EM structure; hTNAP 18-500-scFv complex, 300 kV Titan Krios, C2 symmetry, 2.96 Å; conditions: both partners purified
T1 construct: human tissue non-specific alkaline phosphatase (ALPL gene), amino acids 18-500, the mature form with the GPI-anchor amidated residue Ser 501 removed; HA signal peptide at the N-terminus for secretion; TEV protease site before the Flag and His tags, no cleavage described; Dimer dominates in solution, with higher oligomers; octamer in the crystals; The same range was also made in Expi293F from …

[2] = molecular target: the molecule itself; test: SEC; Superdex 200 Increase 10/300 GL, 20 mM HEPES pH 7.5, 150 mM NaCl; purified TNAP alone
[3] = molecular target: the molecule itself; test: SEC-MALS; static light scattering, WTC-030S5 column, 150 mM NaCl, 20 mM HEPES pH 7.5, 0.5 mL/min
[4] = molecular target: the molecule itself; test: crystal structure; crystals of hTNAP 18-500 grown at acidic pH (PEG3350, sodium acetate pH 5.0; about 2.9 Å) and at basic pH (PEG4000, Tris pH 8.0, MgCl2; about 3.2 Å)

B1: scFv of the TNAP agonist antibody JTALP001 (scFv, V domains shown)
VH: QVQLVQSGAEVKKPGASVKVSCKASGYTFTSYGISWVRQAPGQGLEWMGWISAYNGNTNYAQKLQGRVTMTTDTSTSTAYMELRSLRSDDTAVYYCARDKGWNSEGSLEYWGQGTLVTVSS
VL: DIVMTQSPSSVSASVGDRVTITCRASQGISNWLGWYQQKPGKAPKLLIYGASSLQSGVPSRFSGSGSGTDFTLTISSLQPEDFATYFCQQAYSLPLTFGGGTKLEIK
notes: scFv selected from a human scFv phage library against hTNAP 18-500; The Fc fragment of JTALP001 was replaced by a His-tag; also called scFv fragment; scFv antibody; source: Expi293F, purified (Nickel-chelating resin)
stoichiometry N [1]: 1 scFv per TNAP protomer

B2: TNAP^T167M (active site mutant of hTNAP 18-500) (enzyme, human, UniProt P05186 18-500, looked up)
chain: LVPEKEKDPKYWRDQAQETLKYALELQKLNTNVAKNVIMFLGDGMGVSTVTAARILKGQLHHNPGEETRLEMDKFPFVALSKTYNTNAQVPDSAGTATAYLCGVKANEGTVGVSAATERSRCNTTQGNEVTSILRWAKDAGKSVGIVTTMRVNHATPSAAYAHSADRDWYSDNEMPPEALSQGCKDIAYQLMHNIRDIDVIMGGGRKYMYPKNKTDVEYESDEKARGTRLDGLDLVDTWKSFKPRYKHSHFIWNRTELLTLDPHNVDYLLGLFEPGDMQYELNRNNVTDPSLSEMVVVAIQILRKNPKGFFLLVEGGRIDHGHHEGKAKQALHEAVEMDRAIGQAGSLTSSEDTLTVVTADHSHVFTFGGYTPRGNSIFGLAPMLSDTDKKPFTAILYGNGPGYKVVGGERENVSMVDYAHNNYQAQSAVPLRHETHGGEDVAVFSKGPMAHLLHGVHEQNYVPHVMAYAACIGANLGHCAPA
notes: human tissue non-specific alkaline phosphatase, amino acids 18-500, with the hypophosphatasia mutation T167M; HA signal peptide at the N-terminus; PreScission site before the tags; also called active site mutant TNAP^T167M; source: Expi293F, transfected, purified from the supernatant (Nickel-chelating resin, SEC)
stoichiometry N [2]: 2

B3: TNAP^R450C (dimeric interface mutant of hTNAP 18-500) (enzyme, human, UniProt P05186 18-500, looked up)
chain: B2 chain with M150T, R433C
notes: human tissue non-specific alkaline phosphatase, amino acids 18-500, with the hypophosphatasia mutation R450C; HA signal peptide at the N-terminus; PreScission site before the tags; also called dimeric interface mutant TNAP^R450C; source: Expi293F, transfected, purified from the supernatant (Nickel-chelating resin, SEC)
stoichiometry N [2]: 2

B4: human tissue non-specific alkaline phosphatase, amino acids 18-500 (hTNAP^18–500) (enzyme, UniProt P05186 18-500, looked up)
chain: B2 chain with M150T
modifications: N-glycosylation (asparagine residues, seen in the crystal structure)
notes: human tissue non-specific alkaline phosphatase (ALPL gene), amino acids 18-500, the mature form with the GPI-anchor amidated residue Ser 501 removed; HA signal peptide at the N-terminus for secretion; TEV protease site before the Flag and His tags, no cleavage described; Dimer dominates in solution, with higher oligomers; octamer in the crystals; The same range was also made in Expi293F from …
stoichiometry N [3]: 2
stoichiometry N [4]: 8
